Results as given in publication doi:10.1101/2020.08.02.233536 (bioRxiv, 2020).

Biological target: His-tagged SARS-CoV-2 RBD protein (binding studies) (SARS-CoV-2, UniProt P0DTC2)
Experiment: BLI
Details: both partners purified

B1:  (antibody, V domains shown)
VH: QVQLVQSGAEVKKPGASVKVSCKASGYTFTSYYMHWVRQAPGQGLEWMGIINSSGGSTSYAQKFQGRVTMTRDTSTSTVYMELSSLRSEDTAVYYCARPPRNYYDSSGYYQRAEYFQHWGQGTLVTVSS
VL: DIQLTQSPSSLSASVGDRVTITCQASQDISNYLNWYQQRPGKAPKLLIYDASNLETGVPSRFSGSGSGTDFTFTISSLQPEDIATYYCQQYDNPPLTFGGGTKLEIK
notes: also called somatic revertant VH R100bS
B1: binds.
